Reference: patent US8530168B2, “Fusion protein comprising a Caspase domain and a nuclear hormone receptor binding domain and methods and uses thereof” (Helmholtz Zentrum Munich Deutsches Forschungszentrum fuer …, priority 2007, dated 2013)

How the values were obtained:
MEF5/N9 cells = experiment: TUNEL in situ cell death detection assay of MEF5/N9 clones; format: cell-based, mouse; details: 10^−8 M 4-OH-tamoxifen
From the text: TUNEL, or terminal deoxynucleotidyl transferase-mediated dUTP nick end-labeling, is acknowledged as a method of choice in the rapid detection of DNA fragmentation that results from apoptotic signaling cascades (Gavrieli et al., J. Cell Biol., 119(3), 493-501 (1992)). Cleavage of genomic DNA during apoptosis may yield double-stranded, low molecular weight DNA fragments as well as single strand breaks (“nicks”) in high molecular weight DNA. Those DNA strand breaks can be identified by terminal deoxynucleotidyl transferase (TdT), which catalyzes polymerization of labeled nucleotides to free 3′-OH DNA ends in a template-independent manner. To detect 4-OH-tamoxifen induced cell death in MEF5/N9 cells, we applied the In Situ Cell Death Detection Kit, POD by Roche according to the manufacturer's instructions. Incorporated fluorescein is detected by anti-fluorescein antibody, conjugated with horse-radish peroxidase (POD). After substrate reaction, stained cells can be analyzed under light microscopy.
Two days prior to the TUNEL staining, round glass cover slips ([…]) were sterilized with 70% EtOH, dried under laminar flow and coated with Poly-L-lysine at a concentration of 50 μg/ml over night at 37° C., which allows a better attachment of cells on the cover slips. The following day, the cover slips were rinsed 3 times with PBS and dried for 1 hour under laminar flow. 2.5·10^5 cells were seeded onto cover slips in a 6-well plate. On the test day, medium was replaced either by fresh medium or medium supplemented with 10^−8 M 4-OH-tamoxifen. […] After fixation, cells were rinsed three times in PBS, covered with 100% methanol and incubated for 10 min or over night in a freezer and rinsed in PBS. Endogenous peroxidase activity was blocked by immersing cover slips for 10 min in 3% H2O2 in methanol prior to cell permeabilization. Cells were subsequently rinsed with PBS and incubated in permeabilization solution (0.1% Triton X-100 in freshly prepared 0.1% sodium citrate) for 2 min on ice. To generate a positive control, DNA strand breaks were induced by incubating permeabilized cells with 2 U/ml DNase I in 50 mM Tris-HCl, pH 7.5, 10 mM MgCl2, 1 mg/ml BSA for 10 min at room temperature, prior to labeling procedure. Cover slips were rinsed twice with PBS before incubating each sample with 25 μl TUNEL reaction mixture for 60 min at 37° C. in a humidified atmosphere in the dark. To avoid evaporative loss, cover slips were covered with parafilm. For a negative control 25 μl of Label solution without enzyme solution were added. Following labeling, cover slips were rinsed 3 times with PBS for 10 min each. To convert the fluorescence signal to a chromogenic signal, 25 μl of the POD solution were added on each sample which was covered with parafilm and incubated in a humidified chamber for 30 min at 37° C. Subsequently, cover slips were rinsed 3 times with PBS and incubated in freshly prepared 0.05% DAB in 0.1 M Tris-HCl (pH 7.4) supplemented with 0.02% H2O2 for 10-20 min at room temperature. The conversion procedure was controlled under a light microscope. The reaction was stopped with PBS until brown precipitates were well visible inside the cells. To remove DAB, cover slips were rinsed several times in PBS. Optionally, nuclear staining was performed by incubating cover slips for 15 min in 2.5 μg/ml DAPI diluted in PBS. Cover slips were mounted with a water-soluble, non-fluorescing mounting medium (Aqua-Poly/Mount; Polysciences Inc., Eppelheim, Germany) under SuperFrost slides (VWR International). Prior to the analysis of the samples under a light microscope, mounting medium was dried for 24 hours at room temperature.
To provide direct evidence for 4-OH-tamoxifen-induced apoptosis in MEF5/N9 clones expressing Caspase-8 or -9 fusion proteins, an in situ application of the TUNEL assay was performed. This method detects DNA fragmentation, one of the late events that result from apoptotic signaling cascades. […]

HeLa cells = experiment: Transient cotransfection with β-galactosidase reporter into HeLa cells; format: cell-based, human; details: 10^−8 M 4-OH-tamoxifen, Cre-ER(T2) as reference, range given jointly for HeLa and Pac2
Method: (§1) Results are shown as mean values of triplicate samples with standard deviation. (b) Transient cotransfection of a β-galactosidase reporter with a Cre-ER(T2), myrCasp8-ER(T2), or Casp9-ER(T2) expression plasmid into murine M5/N9 (black columns), human HeLa (grey columns) or zebrafish Pac2 (open columns) cells. 12 h following transfection, cells were cultured for 36 h with 4-OH-tamoxifen at 10^−8 M and the activity of β-galactosidase in cell lysates was determined. Values obtained from transfections of the Cre-ER(T2) vector were defined as reference. Results are shown as mean values of triplicate samples with standard deviation.
Transient transfections into M5/N9 and HeLa cells were performed with FuGene transfection reagent (Roche) following the manufacturer's instructions. Briefly, semiconfluent cultures in a 24-well plate were transfected in triplicate with 112 ng of the β-galactosidase expression vector CMVβ(Invitrogen) and the same amount of pCAG-Cre-ER(T2), pCAG-Casp8-ER(T2) or pCAG-Casp9-ER(T2) plasmid DNA. After 12 h 4-OH-tamoxifen was added at a concentration of 10^−8 M and the cultures were lysed at 48 h. Cell lysis and the measurement of β-galactosidase activity by chemiluminescence were performed with the β-galactosidase reporter gene assay (Roche) using a Centro LB960 plate luminometer (Berthold). […]

Pac2 cells = experiment: Transient cotransfection with β-galactosidase reporter into Pac2 cells; format: cell-based, zebrafish; details: 10^−8 M 4-OH-tamoxifen, Cre-ER(T2) as reference, range given jointly for HeLa and Pac2
Method: as §1
PAC2 zebrafish fibroblasts were grown in Leibowitz's L15—with L-Glutamine medium supplemented with 1% Non-essential Amino Acids, 1% Penicillin/Streptomycin and 10% fetal calf serum (all Gibco) at 28° C. 3×10^6 Cells were transiently transfected with the plasmids CMVβ together with CAG-CreER(T2), CAG-myrCasp8ER(T2) or CAG-Casp9ER(T2) (500 ng each) using nanofectin transfection reagent (PAA). 24 hrs after transfection the medium was replaced and conditioned with 10^−8 M 4-OH-tamoxifen. Before lysis, the cells were incubated for another 24 hrs at 28°. […]

B1: Casp9full-ER(T2): full length murine Caspase-9 fused to ER(T2) ligand binding domain, SEQ ID NO: 29 (protein)
chain: MDEADRQLLRRCRVRLVSELQVAELWDALLSRELFTRDMIEDIQQAGSGSRRDQARQLVTDLETRGRQALPLFISCLEDTGQGTLASLLQSGRQAAKQDPEAVKPLDHLVPVVLGPMGLTAKEQRVVKLDPSQPAVGNLTPVVLGPEELWPARLKPEVLRPETPRPVDIGSGGAHDVCVPGKIRGHADMAYTLDSDPCGHCLIINNVNFCPSSGLGTRTGSNLDRDKLEHRFRWLRFMVEVKNDLTAKKMVTALMEMAHRNHRALDCFVVVILSHGCQASHLQFPGAVYGTDGCSVSIEKIVNIFNGSGCPSLGGKPKLFFIQACGGEQKDHGFEVACTSSQGRTLDSDSEPDAVPYQEGPRPLDQLDAVSSLPTPSDILVSYSTFPGFVSWRDKKSGSWYIETLDGILEQWARSEDLQSLLLRVANAVSAKGTYKQIPGCFNFLRKKLFFKTSVEPSAGDMRAANLWPSPLMIKRSKKNSLALSLTADQMVSALLDAEPPILYSEYDPTRPFSEASMMGLLTNLADRELVHMINWAKRVPGFVDLTLHDQVHLLECAWLEILMIGLVWRSMEHPVKLLFAPNLLLDRNQGKCVEGMVEIFDMLLATSSRFRMMNLQGEEFVCLKSIILLNSGVYTFLSSTLKSLEEKDHIHRVLDKITDTLIHLMAKAGLTLQQQHQRLAQLLLILSHIRHMSNKGMEHLYSMKCKNVVPLYDLLLEAADAHRLHAPTSRGGASVEETDQSHLATAGSTSSHSLQKYYITGEAEGFPATA
modifications: fusion protein Casp9full-ER(T2)
MEF5/N9 cells; 3 or 7 hours
  TUNEL result / apoptotic morphology (in words): typical apoptotic morphology
MEF5/N9 cells; fixation at 2, 3, 5 and 7 hours
  incubation time with 4-OH-tamoxifen at which TUNEL positive cells were detected: 3 h
HeLa cells
  reduction of β-Galactosidase activity in presence of 4-OHT: 91-93%
Pac2 cells
  reduction of β-Galactosidase activity in presence of 4-OHT: 91-93%
